Assay results taken from patent US20250002610A1 (Genmab, published 2025).

Tests used:
[1] = target: T1, human DR4 (Death Receptor 4), cell surface expressed on human tumor cell lines (human, UniProt O00220 24-468); test: flow cytometry, A549 cells, n = 1
T1 construct: also called TNFRSF10A; TRAIL-R1
T1 sequence: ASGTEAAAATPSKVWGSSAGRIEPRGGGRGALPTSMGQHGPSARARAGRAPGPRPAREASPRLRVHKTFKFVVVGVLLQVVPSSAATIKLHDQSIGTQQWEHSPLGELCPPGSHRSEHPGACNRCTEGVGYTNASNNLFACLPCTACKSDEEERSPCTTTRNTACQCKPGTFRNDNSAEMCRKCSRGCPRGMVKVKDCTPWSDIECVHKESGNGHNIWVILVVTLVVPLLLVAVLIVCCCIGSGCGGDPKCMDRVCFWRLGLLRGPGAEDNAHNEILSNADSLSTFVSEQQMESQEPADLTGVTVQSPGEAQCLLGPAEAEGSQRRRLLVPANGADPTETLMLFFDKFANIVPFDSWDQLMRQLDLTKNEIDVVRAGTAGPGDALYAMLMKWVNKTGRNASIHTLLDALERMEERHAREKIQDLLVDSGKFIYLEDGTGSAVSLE

[2] = target: T1, human DR4 (Death Receptor 4), cell …; test: flow cytometry, HCT-15 cells, n = 1
[3] = target: T1, human DR4 (Death Receptor 4), cell …; test: flow cytometry, HCT-15 cells, n = 2
[4] = target: T1, human DR4 (Death Receptor 4), cell …; test: flow cytometry, HCT-15 cells, n = 3
[5] = target: T1, human DR4 (Death Receptor 4), cell …; test: flow cytometry, MDA-MB-231 cells, n = 1
[6] = target: T1, human DR4 (Death Receptor 4), cell …; test: flow cytometry, A549 cells, average ± SEM
[7] = target: T1, human DR4 (Death Receptor 4), cell …; test: flow cytometry, DLD-1 cells, average ± SEM
[8] = target: T2, human FAPα (Fibroblast activation protein alpha), cell surface expressed (human, UniProt Q12884 1-760); test: flow cytometry, Expi293F cells expressing human FAPα, n = 1
T2 construct: Endogenous on human lung fibroblasts and CAFs
T2 sequence: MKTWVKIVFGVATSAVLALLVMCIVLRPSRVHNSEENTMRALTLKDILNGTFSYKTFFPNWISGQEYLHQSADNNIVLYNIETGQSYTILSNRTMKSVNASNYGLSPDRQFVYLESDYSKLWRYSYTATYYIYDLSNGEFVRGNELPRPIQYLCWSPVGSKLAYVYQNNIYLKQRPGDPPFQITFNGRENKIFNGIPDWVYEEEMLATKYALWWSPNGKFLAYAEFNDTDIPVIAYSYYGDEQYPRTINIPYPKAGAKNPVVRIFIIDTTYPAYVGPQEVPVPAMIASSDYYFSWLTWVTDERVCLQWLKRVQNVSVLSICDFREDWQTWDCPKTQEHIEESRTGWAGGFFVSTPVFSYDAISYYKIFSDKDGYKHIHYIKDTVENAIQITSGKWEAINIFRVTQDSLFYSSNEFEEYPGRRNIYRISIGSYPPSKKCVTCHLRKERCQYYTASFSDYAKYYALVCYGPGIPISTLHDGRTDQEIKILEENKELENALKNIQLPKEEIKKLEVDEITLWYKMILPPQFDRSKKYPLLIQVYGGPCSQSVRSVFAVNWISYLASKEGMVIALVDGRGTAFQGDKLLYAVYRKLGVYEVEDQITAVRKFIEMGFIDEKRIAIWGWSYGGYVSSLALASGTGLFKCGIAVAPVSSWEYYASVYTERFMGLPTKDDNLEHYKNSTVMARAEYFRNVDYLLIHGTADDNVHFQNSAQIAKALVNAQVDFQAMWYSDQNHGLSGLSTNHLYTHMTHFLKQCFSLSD
Method: (§1) Binding of BisG1-FAPα-FERL/DR4-FERR, BisG1-FAPα-FEAL/b12-FEAR and IgG1-FAPα-FERL to FAPα of species commonly used for nonclinical toxicology studies was assessed by flow cytometry using Expi293F cells transiently expressing FAPα from different animal species. IgG1-b12 was included as negative control.
(§2) Expi293F cells expressing recombinant FAPα from various species (human, cynomolgus monkey, dog, pig, rat or mouse) were seeded (20,000 cells/well) in 96-Well round bottom plates (Greiner Bio-one, Cat #650101). Antibody dilutions were prepared using FACS buffer, consisting of PBS (Capricorn Scientific, Cat #PBS-10XA, diluted to 1×PBS in distilled water)+1% BSA (Roche, Cat #10735086001)+0.02% Sodium Azide (Bio-World, Cat #41920044-3). Plates were centrifuged, supernatant was removed, and cells were resuspended in 100 μL of antibody dilutions (concentration range 30-0.00017 μg/mL with three-fold serial dilutions using FACS buffer) of BisG1-FAPα-FERL/DR4-FERR, BisG1-FAPα-FEAL/b12-FEAR, IgG1-FAPα-FERL and IgG1-b12 and incubated for 30 min at 4° C. […] After 30 min incubation at 4° C., cells were washed with FACS buffer and resuspended in FACS buffer supplemented with TO-PRO-3 Iodide viability marker (Invitrogen, Cat #T3605, diluted 1:4,000). Antibody binding to viable cells (gMFI of PE on TO-PRO-3 negative cells) was analyzed by flow cytometry on a FACS Celesta and FACS_Diva software (first two experiments) or iQue® 3 and FlowJo software (last experiment). gMFI was determined and visualized using GraphPad Prism. Binding curves were analyzed using nonlinear regression analysis. The concentration (pg/mL) at which 50% of the maximal effect was observed (EC₅₀) was derived from the fitted curves.

[9] = target: T2, human FAPα (Fibroblast activation …); test: flow cytometry, Expi293F cells expressing human FAPα, n = 3
Method: as §1, §2

- EC50 [8]: 0.18 µg/mL
- EC50 [9]: 0.23 µg/mL
B1: BisG1-FAPα-FERL/DR4-FERR (bispecific antibody, human IgG1, kappa, lambda)
heavy 1: EVQLLESGGGLVQPGGSPRLSCEASGFTFSSYALSWVRQAPGKGLEWVSAISGSGGGRYYADSVKGRFTISRDNSKNTLFLQMNSLRAEDTAVYYCAKEGYSSSGTYWDHWGQGTLVTVSSASTKGPSVFPLAPSSKSTSGGTAALGCLVKDYFPEPVTVSWNSGALTSGVHTFPAVLQSSGLYSLSSVVTVPSSSLGTQTYICNVNHKPSNTKVDKRVEPKSCDKTHTCPPCPAPEFERGPSVFLFPPKPKDTLMISRTPEVTCVVVDVSHEDPEVKFNWYVDGVEVHNAKTKPREEQYNSTYRVVSVLTVLHQDWLNGKEYKCKVSNKALPAPIEKTISKAKGQPREPQVYTLPPSREEMTKNQVSLTCLVKGFYPSDIAVEWESNGQPENNYKTTPPVLDSDGSFLLYSKLTVDKSRWQQGNVFSCSVMHEALHNHYTQKSLSLSPG
light 1: AIQMTQSPSSVSASVGDRVTITCRASQGVSSWLAWYQQKPGRAPKLLIYVASTLQSGVPSRFSGSGSGTDFTLTINSLQPEDFATYYCQQANSFPPTFGQGTRLEMKRTVAAPSVFIFPPSDEQLKSGTASVVCLLNNFYPREAKVQWKVDNALQSGNSQESVTEQDSKDSTYSLSSTLTLSKADYEKHKVYACEVTHQGLSSPVTKSFNRGEC
heavy 2: QVQLQESGPGLVKPSGTLSLTCAVSGGSISSYSWWSWIRQPPGKGLEWIGELYHSGSTNYNPSLKSRVTISVDKSKNQFSLKLRSVTAADTAVYYCVRGVATIDYWGQGTLVTVSSASTKGPSVFPLAPSSKSTSGGTAALGCLVKDYFPEPVTVSWNSGALTSGVHTFPAVLQSSGLYSLSSVVTVPSSSLGTQTYICNVNHKPSNTKVDKRVEPKSCDKTHTCPPCPAPEFERGPSVFLFPPKPKDTLMISRTPEVTCVVVDVSHEDPEVKFNWYVDGVEVHNAKTKPREEQYNSTYRVVSVLTVLHQDWLNGKEYKCKVSNKALPAPIEKTISKAKGQPREPQVYTLPPSREEMTKNQVSLTCLVKGFYPSDIAVEWESNGQPENNYKTTPPVLDSDGSFFLYSRLTVDKSRWQQGNVFSCSVMHEALHNHYTQKSLSLSPG
light 2: QSALTQPPSASGSPGQSVTISCTGTSSDVGGYNFVSWYQQDPGKAPKLLIYEVTKRPSGVPDRFSGSKSGNTASLTVSGLQAEDEADYYCSSYAGSNNVMFGGGTKLTVLGQPKAAPSVTLFPPSSEELQANKATLVCLISDFYPGAVTVAWKADSSPVKAGVETTTPSKQSNNKYAASSYLSLTPEQWKSHRSYSCQVTHEGSTVEKTVAPTECS
notes: Human IgG1 bispecific made by controlled Fab-arm exchange of IgG1-FAPα-FERL and IgG1-DR4-FERR; monovalent for FAPα and for DR4; also called GEN1057
- EC50 [1]: 0.86 µg/mL
- EC50 [2]: 0.59 µg/mL
- EC50 [3]: 0.69 µg/mL
- EC50 [4]: 0.68 µg/mL
- EC50 [5]: 1.12 µg/mL
- EC50 [6]: 0.89 µg/mL
- EC50 [7]: 0.72 µg/mL
